Experimental data: IntAct's records for PubMed 14507921

B1: Anthrax toxin receptor 1 (Homo sapiens), Q9H6X2-2 (parent)
chain: MATAERRALGIGFQWLSLATLVLICAGQGGRREDGGPACYGGFDLYFILDKSGSVLHHWNEIYYFVEQLAHKFISPQLRMSFIVFSTRGTTLMKLTEDREQIRQGLEELQKVLPGGDTYMHEGFERASEQIYYENRQGYRTASVIIALTDGELHEDLFFYSEREANRSRDLGAIVYCVGVKDFNETQLARIADSKDHVFPVNDGFQALQGIIHSILKKSCIEILAAEPSTICAGESFQVVVRGNGFRHARNVDRVLCSFKINDSVTLNEKPFSVEDTYLLCPAPILKEVGMKAALQVSMNDGLSFISSSVIITTTHCSDGSILAIALLILFLLLALALLWWFWPLCCTVIIKEVPPPPAEESEENKIK

Variants of: B1
Conditions: with pag_bacan pagA

Variant	effect of a mutation on the interaction
D50A	decreasing interaction
T118A	decreasing interaction
